Source: patent US20140072613A1, “Compositions and Methods for Treating Cutaneous Scarring” (priority 2012, published 2014)

Experiments:
Assay in all cases: biochemical
Type in all cases: biochemical
[1] = biological target: 266 human kinases (Homo sapiens, UniProt Q02763, R849W); settings: Tie2(R849W)(h); 100 μM
Procedure, shortened: (§1)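 Read-out by scintillation counting of radiolabelled, positively charged substrate bound to negatively charged filter; activity normalised to 100% control. Phosphate transferred from radiolabelled ATP.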

[2] = biological target: 266 human kinases (Homo sapiens, UniProt P34947); settings: GRK5(h); 100 μM
Procedure, shortened: as §1

[3] = biological target: 266 human kinases (Homo sapiens, UniProt P53350); settings: Plk1(h); 100 μM
Sequence of 266 human kinases (Homo sapiens, UniProt P53350) (P53350 whole entry): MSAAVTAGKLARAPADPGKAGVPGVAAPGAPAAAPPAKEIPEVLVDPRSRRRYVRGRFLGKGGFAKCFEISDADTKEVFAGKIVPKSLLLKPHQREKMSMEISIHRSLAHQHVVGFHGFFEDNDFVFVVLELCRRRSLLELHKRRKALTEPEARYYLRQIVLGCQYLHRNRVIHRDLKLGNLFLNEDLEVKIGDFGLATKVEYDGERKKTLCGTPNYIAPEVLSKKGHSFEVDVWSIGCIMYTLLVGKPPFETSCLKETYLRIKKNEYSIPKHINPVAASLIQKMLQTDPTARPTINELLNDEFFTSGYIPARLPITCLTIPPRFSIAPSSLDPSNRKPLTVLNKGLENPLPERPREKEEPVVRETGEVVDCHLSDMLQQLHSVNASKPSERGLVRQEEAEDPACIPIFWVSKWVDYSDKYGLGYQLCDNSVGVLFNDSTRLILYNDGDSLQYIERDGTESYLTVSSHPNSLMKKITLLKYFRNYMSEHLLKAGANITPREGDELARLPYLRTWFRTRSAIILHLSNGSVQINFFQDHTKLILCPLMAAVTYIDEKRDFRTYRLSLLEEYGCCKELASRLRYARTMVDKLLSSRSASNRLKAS
Procedure, shortened: as §1

[4] = biological target: T1, 266 human kinases (Homo sapiens, UniProt Q8IWQ3); settings: BrSK2(h); 100 μM
T1 sequence (Q8IWQ3 1-736): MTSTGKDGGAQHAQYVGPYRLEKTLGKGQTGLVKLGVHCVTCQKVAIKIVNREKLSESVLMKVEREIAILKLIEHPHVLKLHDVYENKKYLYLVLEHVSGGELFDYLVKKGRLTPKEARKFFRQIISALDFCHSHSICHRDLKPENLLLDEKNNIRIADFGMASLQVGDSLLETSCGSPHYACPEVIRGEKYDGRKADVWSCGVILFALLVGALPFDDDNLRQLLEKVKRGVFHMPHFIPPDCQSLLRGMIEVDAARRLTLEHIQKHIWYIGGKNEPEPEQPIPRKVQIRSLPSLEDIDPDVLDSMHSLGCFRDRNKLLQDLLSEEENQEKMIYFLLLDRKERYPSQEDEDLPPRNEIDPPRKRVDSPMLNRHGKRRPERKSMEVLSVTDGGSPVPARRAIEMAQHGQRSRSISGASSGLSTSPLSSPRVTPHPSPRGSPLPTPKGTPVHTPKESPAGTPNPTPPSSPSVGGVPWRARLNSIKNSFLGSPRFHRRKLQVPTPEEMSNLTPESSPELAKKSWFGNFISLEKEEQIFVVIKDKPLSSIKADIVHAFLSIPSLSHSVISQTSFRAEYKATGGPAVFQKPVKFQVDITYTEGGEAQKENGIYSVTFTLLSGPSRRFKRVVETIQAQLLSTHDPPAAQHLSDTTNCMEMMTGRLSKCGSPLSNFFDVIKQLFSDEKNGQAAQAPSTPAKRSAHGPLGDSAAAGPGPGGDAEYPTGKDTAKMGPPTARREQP
Procedure, shortened: as §1

[5] = biological target: 266 human kinases (Homo sapiens, UniProt Q15418); settings: Rsk1(h); 100 μM
Sequence of 266 human kinases (Homo sapiens, UniProt Q15418) (Q15418 whole entry): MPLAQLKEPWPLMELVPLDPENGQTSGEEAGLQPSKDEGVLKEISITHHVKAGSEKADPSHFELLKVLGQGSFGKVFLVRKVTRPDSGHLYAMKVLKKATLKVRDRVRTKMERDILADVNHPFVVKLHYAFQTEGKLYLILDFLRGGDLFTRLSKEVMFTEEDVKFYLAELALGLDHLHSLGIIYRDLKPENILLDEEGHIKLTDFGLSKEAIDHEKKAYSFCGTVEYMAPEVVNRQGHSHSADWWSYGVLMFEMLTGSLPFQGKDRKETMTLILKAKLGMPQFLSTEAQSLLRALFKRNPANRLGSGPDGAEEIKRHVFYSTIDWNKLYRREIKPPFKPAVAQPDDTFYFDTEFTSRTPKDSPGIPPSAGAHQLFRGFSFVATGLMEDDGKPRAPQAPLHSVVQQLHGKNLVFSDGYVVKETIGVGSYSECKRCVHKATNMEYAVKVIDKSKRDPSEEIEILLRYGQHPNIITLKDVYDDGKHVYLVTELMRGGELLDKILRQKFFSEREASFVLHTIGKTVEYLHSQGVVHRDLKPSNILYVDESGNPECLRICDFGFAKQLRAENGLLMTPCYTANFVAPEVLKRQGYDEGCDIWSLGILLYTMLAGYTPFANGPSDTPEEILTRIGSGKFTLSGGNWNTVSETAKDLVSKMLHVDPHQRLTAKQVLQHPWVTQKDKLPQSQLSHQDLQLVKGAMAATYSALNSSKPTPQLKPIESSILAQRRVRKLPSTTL
Procedure, shortened: as §1

[6] = biological target: 266 human kinases (Homo sapiens, UniProt P45984); settings: JNK2α2(h); 100 μM
Procedure, shortened: as §1

[7] = biological target: 266 human kinases (Homo sapiens, UniProt Q9Y5S2); settings: MRCKβ(h); 100 μM
Sequence of 266 human kinases (Homo sapiens, UniProt Q9Y5S2) (Q9Y5S2 whole entry): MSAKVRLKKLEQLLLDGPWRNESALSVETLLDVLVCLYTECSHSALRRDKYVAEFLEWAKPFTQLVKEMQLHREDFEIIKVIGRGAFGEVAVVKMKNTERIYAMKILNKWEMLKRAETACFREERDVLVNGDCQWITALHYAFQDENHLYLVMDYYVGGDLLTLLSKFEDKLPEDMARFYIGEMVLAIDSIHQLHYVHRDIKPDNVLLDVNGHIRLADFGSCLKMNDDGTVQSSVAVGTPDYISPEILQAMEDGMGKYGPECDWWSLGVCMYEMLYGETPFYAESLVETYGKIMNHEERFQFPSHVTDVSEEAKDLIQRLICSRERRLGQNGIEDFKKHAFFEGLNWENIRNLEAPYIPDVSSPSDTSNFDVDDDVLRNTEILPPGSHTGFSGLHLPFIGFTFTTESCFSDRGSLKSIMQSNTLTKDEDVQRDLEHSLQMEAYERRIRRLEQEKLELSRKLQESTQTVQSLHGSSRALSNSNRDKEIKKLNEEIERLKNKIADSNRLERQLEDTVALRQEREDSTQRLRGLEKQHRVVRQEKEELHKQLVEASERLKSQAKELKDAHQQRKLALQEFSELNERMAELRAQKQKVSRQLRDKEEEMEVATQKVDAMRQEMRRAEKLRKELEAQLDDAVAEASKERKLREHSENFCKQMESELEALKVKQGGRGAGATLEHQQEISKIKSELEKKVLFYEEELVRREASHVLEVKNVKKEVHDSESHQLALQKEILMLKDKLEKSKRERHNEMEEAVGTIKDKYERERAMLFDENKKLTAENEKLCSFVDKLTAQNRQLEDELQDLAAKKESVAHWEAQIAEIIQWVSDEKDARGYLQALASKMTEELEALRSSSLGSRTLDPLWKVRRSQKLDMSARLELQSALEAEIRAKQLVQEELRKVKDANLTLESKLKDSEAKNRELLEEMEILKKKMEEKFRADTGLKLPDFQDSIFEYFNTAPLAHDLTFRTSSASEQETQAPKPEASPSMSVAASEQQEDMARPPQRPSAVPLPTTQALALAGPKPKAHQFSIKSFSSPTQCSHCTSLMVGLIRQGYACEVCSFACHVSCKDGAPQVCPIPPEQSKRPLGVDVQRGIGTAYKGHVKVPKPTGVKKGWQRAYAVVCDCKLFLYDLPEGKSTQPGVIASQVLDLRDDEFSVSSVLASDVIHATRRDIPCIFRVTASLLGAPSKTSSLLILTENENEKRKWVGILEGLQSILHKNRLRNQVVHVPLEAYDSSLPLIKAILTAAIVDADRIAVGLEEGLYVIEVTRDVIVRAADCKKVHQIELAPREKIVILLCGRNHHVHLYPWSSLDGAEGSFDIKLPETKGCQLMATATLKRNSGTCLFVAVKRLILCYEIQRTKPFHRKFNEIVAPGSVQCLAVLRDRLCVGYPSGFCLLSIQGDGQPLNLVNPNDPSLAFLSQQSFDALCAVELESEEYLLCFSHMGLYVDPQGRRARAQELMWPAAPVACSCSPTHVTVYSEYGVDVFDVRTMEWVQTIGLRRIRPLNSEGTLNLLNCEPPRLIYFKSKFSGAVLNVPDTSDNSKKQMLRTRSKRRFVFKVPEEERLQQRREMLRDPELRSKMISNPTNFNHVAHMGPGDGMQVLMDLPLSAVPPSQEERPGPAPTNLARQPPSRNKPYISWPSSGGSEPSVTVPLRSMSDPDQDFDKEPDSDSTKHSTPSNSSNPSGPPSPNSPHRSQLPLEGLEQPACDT
Procedure, shortened: as §1

[8] = biological target: 266 human kinases (Homo sapiens, UniProt P04049); settings: c-RAF(h); 100 μM
Procedure, shortened: as §1

[9] = biological target: T2, 266 human kinases (Homo sapiens, UniProt P29320); settings: EphA3(h); 100 μM
T2 sequence (P29320 21-983): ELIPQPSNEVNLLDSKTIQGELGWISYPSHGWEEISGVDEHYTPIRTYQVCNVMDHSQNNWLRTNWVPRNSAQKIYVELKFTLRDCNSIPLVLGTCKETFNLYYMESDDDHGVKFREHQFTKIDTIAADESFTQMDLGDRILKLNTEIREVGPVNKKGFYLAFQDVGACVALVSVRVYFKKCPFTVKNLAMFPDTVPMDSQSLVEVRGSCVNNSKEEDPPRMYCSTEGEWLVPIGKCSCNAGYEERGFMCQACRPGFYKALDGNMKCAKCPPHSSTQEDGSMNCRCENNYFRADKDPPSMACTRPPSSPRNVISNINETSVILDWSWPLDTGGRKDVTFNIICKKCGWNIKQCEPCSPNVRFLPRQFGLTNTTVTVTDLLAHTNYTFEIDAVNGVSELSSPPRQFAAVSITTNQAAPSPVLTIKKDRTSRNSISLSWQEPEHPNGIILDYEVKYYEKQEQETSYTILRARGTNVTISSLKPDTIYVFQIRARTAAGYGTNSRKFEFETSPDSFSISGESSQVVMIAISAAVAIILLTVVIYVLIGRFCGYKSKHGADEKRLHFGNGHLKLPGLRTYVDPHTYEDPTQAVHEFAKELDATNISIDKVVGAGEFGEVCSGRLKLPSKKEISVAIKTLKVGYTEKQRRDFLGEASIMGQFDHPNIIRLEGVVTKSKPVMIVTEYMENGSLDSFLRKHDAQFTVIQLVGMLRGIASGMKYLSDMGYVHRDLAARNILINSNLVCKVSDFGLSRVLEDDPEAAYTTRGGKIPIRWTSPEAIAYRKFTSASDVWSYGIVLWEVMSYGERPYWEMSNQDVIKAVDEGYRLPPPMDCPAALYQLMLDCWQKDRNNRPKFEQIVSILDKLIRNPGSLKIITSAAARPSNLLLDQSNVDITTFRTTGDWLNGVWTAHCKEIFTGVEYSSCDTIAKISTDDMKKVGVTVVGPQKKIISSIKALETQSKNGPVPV
Procedure, shortened: as §1

[10] = biological target: 266 human kinases (Homo sapiens, UniProt P24941); settings: 100 μM
Procedure, shortened: as §1

[11] = biological target: 266 human kinases (Homo sapiens, UniProt Q9H4B4); settings: Plk3(h); 100 μM
Sequence of 266 human kinases (Homo sapiens, UniProt Q9H4B4) (Q9H4B4 whole entry): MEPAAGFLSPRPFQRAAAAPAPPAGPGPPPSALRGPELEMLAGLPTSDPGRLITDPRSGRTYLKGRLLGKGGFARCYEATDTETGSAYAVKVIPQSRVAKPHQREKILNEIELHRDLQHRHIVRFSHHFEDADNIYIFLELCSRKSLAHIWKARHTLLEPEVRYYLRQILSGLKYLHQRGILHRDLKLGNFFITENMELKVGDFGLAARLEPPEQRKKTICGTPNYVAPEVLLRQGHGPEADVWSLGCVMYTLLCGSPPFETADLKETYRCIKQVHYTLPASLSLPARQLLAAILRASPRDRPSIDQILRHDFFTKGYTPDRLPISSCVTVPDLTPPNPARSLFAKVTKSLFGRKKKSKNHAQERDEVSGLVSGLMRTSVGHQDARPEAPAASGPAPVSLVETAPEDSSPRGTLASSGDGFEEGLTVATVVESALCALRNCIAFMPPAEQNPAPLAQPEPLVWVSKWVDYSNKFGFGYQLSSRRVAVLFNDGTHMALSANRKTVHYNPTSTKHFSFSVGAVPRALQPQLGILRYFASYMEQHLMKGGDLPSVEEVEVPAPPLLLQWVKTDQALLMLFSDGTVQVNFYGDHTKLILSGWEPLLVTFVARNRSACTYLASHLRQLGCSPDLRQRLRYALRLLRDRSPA
Procedure, shortened: as §1

[12] = biological target: T3, 266 human kinases (Homo sapiens, UniProt P51817); settings: PrKX(h); 100 μM
T3 sequence (P51817 1-358): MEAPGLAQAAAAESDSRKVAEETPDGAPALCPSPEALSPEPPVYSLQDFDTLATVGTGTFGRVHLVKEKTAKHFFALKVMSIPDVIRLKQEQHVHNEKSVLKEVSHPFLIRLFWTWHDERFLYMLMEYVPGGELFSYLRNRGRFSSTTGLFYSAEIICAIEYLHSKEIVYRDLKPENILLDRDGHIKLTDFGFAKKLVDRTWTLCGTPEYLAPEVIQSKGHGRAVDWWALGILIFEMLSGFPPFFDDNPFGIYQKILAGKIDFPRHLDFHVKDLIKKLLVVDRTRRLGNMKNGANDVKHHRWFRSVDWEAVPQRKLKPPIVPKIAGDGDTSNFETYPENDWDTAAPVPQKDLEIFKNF
Procedure, shortened: as §1

Sequence of 266 human kinases (Homo sapiens, UniProt Q02763, R849W) (Q02763 23-1124 R849W): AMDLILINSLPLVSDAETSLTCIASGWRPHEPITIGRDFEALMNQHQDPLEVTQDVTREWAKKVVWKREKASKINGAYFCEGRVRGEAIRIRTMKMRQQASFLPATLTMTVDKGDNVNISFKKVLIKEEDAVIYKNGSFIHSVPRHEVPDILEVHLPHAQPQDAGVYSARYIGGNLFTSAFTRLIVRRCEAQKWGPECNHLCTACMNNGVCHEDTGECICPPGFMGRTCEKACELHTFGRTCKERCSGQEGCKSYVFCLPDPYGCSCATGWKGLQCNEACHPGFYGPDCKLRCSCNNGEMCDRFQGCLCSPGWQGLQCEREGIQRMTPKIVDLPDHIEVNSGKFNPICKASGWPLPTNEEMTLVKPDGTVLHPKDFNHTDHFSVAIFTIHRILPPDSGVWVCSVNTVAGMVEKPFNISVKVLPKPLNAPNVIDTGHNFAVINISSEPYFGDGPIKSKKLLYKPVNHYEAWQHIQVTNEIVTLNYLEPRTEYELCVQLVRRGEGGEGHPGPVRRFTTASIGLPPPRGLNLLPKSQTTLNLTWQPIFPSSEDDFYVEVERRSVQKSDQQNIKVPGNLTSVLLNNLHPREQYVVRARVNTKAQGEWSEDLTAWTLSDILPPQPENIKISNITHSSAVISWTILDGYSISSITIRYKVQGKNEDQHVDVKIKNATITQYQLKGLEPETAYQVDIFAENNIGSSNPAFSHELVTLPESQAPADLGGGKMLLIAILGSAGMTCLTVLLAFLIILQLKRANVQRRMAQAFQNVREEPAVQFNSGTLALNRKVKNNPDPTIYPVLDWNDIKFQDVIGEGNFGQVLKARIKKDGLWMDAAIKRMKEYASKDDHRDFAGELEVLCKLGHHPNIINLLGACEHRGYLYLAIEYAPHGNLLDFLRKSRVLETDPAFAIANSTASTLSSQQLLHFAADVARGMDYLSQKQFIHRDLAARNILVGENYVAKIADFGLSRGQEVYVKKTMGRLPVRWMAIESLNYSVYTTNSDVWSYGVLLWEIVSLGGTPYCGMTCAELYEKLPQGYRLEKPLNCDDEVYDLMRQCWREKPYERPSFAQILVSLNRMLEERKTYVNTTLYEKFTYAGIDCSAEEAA

## YARAAARQARAKALNRQLGVA (mammal) [MMI-0200]
[1]
  % activity: 89%
[2]
  % activity: 135%
[3]
  % activity: 128%

## HRRIKAWLKKIKALARQLGVAA (mammal) [MMI-0500]
[4]
  % activity: 84%
[5]
  % activity: 34%
[6]
  % activity: 81%
[7]
  % activity: −10%
[8]
  % activity: 19%
[9]
  % activity: 33%
[10]; CDK2/cyclinA(h)
  % activity: 87%
[10]; CDK2/cyclinE(h)
  % activity: 19%
[11]
  % activity: 122%
[12]
  % activity: 57%
